Data on three molecules can be found in patent US20180221507A1 (IMAGINAB, published 2018).

The chains are these.
B1: IAB22C-3 (other)
scFv: DVQITQSPSSLSASVGDRVTITCRTSRSISQYLAWYQQKPGKVPKLLIYSGSTLQSGVPSRFSGSGSGTDFTLTISSLQPEDVATYYCQQHNENPLTFGGGTKVEIKSGGGGEVQLVESGGGLVQPGGSLRLSCAASGFNIKDTYIHFVRQAPGKGLEWIGRIDPANDNTLYASKFQGKATISADTSKNTAYLQMNSLRAEDTAVYYCGRGYGYYVFDHWGQGTLVTVSSGGCPPCPPC
notes: Cys-diabody (scFv dimer); also called anti-CD8 Cys-diabody, 3 Cys (CPPCPPC)
B2: IAB22C-2 (other)
scFv: DVQITQSPSSLSASVGDRVTITCRTSRSISQYLAWYQQKPGKVPKLLIYSGSTLQSGVPSRFSGSGSGTDFTLTISSLQPEDVATYYCQQHNENPLTFGGGTKVEIKSGGGGEVQLVESGGGLVQPGGSLRLSCAASGFNIKDTYIHFVRQAPGKGLEWIGRIDPANDNTLYASKFQGKATISADTSKNTAYLQMNSLRAEDTAVYYCGRGYGYYVFDHWGQGTLVTVSSGGCPPC
notes: Cys-diabody (scFv dimer); also called anti-CD8 Cys-diabody, 2 Cys (CPPC)
B3: IAB22C-1 (other)
scFv: DVQITQSPSSLSASVGDRVTITCRTSRSISQYLAWYQQKPGKVPKLLIYSGSTLQSGVPSRFSGSGSGTDFTLTISSLQPEDVATYYCQQHNENPLTFGGGTKVEIKGGGSGGGGEVQLVESGGGLVQPGGSLRLSCAASGFNIKDTYIHFVRQAPGKGLEWIGRIDPANDNTLYASKFQGKATISADTSKNTAYLQMNSLRAEDTAVYYCGRGYGYYVFDHWGQGTLVTVSSGGC
notes: Cys-diabody (scFv dimer); also called anti-CD8 Cys-diabody, 1 Cys (GGC)

The target in this test is T1, CD8 expressed on the surface of HPB-ALL cells (UniProt P01732 22-235).
T1 construct: whole, on cells
T1 sequence (P01732 22-235): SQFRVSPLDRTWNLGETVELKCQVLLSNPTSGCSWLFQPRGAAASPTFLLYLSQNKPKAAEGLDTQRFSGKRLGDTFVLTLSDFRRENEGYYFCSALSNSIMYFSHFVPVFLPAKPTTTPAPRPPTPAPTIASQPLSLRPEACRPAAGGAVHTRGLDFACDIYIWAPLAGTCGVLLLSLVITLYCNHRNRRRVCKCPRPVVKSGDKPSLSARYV
The experiment in a line: flow cytometry on HPB-ALL cells, MFI against concentration, four-parameter fit. How it is done: The cells were centrifuged at 400 rpm for 5 minutes, re-suspended in 200 uL of cell staining buffer (1% BSA in phosphate buffer saline, 0.09% sodium azide). Data were acquired on the Attune Acoustic Focusing Cytometer (Applied Biosystems, Foster City, Calif.) (FIG. 9A) and Mean Fluorescent Intensity (MFI) values were plotted against concentration for each sample (FIG. 9B). Best fit binding curves and IC₅₀ values were generated with four-parameter logistic nonlinear regression using GraphPad Prism version 6 for Windows (GraphPad Software, La Jolla, Calif.). and binding assessed on an Attune acoustic focusing cytometer (Applied Biosystems) (Table 4.3).
A general note: Flow cytometry measures light scatter and fluorescence of single cells or particles in a stream.
In general, EC50 refers to the concentration at which the effect is half-maximal. In turn, B1 yielded an EC50 of 0.13 nM.
The value for B2 was 0.15 nM; that for B3 was 0.08 nM.
